From article PMC11208158, “Structural mechanism of bridge RNA-guided recombination” come the findings set out here.

In series [1] the target is T1, IS621 recombinase (Escherichia coli, UniProt A0A0E0Y1P1 1-326). Briefly: MST; 5 mM Mg2+; MST: 20 nM labelled IS621, RNA 0.076-250 nM, 37 C; labelled protein eluted in 20 mM Tris-HCl pH 7.5, 500 mM NaCl, 5 mM MgCl2, 1 mM DTT, 0.01% Tween 20. Particulars: protein: recombinant; tags: N-terminal His8, Twin-Strep, HRV 3C site (tag removal not described); chain copies: 4; 5' stem loop, TBL and DBL.

Series [2] addresses T1, IS621 recombinase. Briefly: cryo-EM; initial synaptic complex; MST: 20 nM labelled IS621, RNA 0.076-250 nM, 37 C; labelled protein eluted in 20 mM Tris-HCl pH 7.5, 500 mM NaCl, 5 mM MgCl2, 1 mM DTT, 0.01% Tween 20. Particulars: protein: recombinant; tags: N-terminal His8, Twin-Strep, HRV 3C site (tag removal not described); chain copies: 4; S6:S5 and S14:S13 duplexes with 6-nt mismatches at positions 2-7; TBL and DBL from two bRNA copies.

B1: WT bRNA (177 nt) (structured_RNA)
RNA: AGUGCAGAGAAAAUCGGCCAGUUUUCUCUGCCUGCAGUCCGCAUGCCGUAUCGGGCCUUGGGUUCUAACCUGUUGCGUAGAUUUAUGCAGCGGACUGCCUUUCUCCCAAAGUGAUAAACCGGACAGUAUCAUGGACCGGUUUUCCCGGUAAUCCGUAUUUGCAAGGUUGGUUUCACU
B1: in the series with IS621 recombinase [1], the Kd was 3 ± 1 nM.

B2: WT bRNA + 38-bp tDNA 6mm + 44-bp dDNA 6mm (mixed)
RNA: GGGAGUGCAGAGAAAAUCGGCCAGUUUUCUCUGCCUGCAGUCCGCAUGCCGUAUCGGGCCUUGGGUUCUAACCUGUUGCGUAGAUUUAUGCAGCGGACUGCCUUUCUCCCAAAGUGAUAAACCGGACAGUAUCAUGGACCGGUUUUCCCGGUAAUCCGUAUUUGCAAGGUUGGUUUCACU
DNA 1: GCCGGGTAATACCACCAAGTCTTCTACAGATGAGCTCG
DNA 2: CGAGCTCATCTGTAGGCCTGATGGTGGTATTACCCGGC
DNA 3: TGCAGGCCATAAGTCATACTTGTATTATCCCTCCAGTGCAGAGA
DNA 4: TCTCTGCACTGGAGGGATAATACAAGATACTGTTATGGCCTGCA
For B2, in the series with IS621 recombinase [2], the binding result is “binds”.
